Measurements: the DeepSol protein solubility set

Assay: soluble on expression in E. coli; label from the status in PepcDB or PDB records
In the case of “MGSDKIHHHHHHMTAIVEPTWEERRTPEAAHEDDARSQYRKDYSRIIHSAALRRLQTKTQVLGLGDSDFYRTRLTHSLEVAQIGVGILLEIQRRFAGSNIEKYLPDERLLEAICLSHDYGHPPFGHGGERALNFAMREYGGFEGNAQTFRILSKLEKYSQNSGLNPTRRTLLGVLKYPTTYSNSMTNDFRRGTDIDKYPDAELKPPKCIYDCDLDVLDWVLKIFCSEDVTEFKKLDYKCKPLHKSLDCSLMETADDIAYTVHDLEDCIKLKLINREMWDAYIKSADYSEATRLEIEKWNQRIFSKEGNLVKQGISNMVYFFIHSVIQYEHEELSHPILKYGFKLGEEAARLRSAIQKIITNEVIKTHRVRVLESKGQRMIFSIFGELVRDPESFLPRETLDKYNKATGNLRMRVICDYVSGMTDEYATKTYQRFFTPKFGSVFDV”, the “soluble on expression in E. coli” value is reported as “not soluble”.
With “MGSDKIHHHHHHMTALFQQLPSVDKILKTPQGLQLITEFGHTAVVATCRELLTQARQFIKKNNQLPEYFSNFDRTFLEIHSHLQKQNQVQIKAVHNLTGTVLHTNLGRALWSEAAQQAALSAMQKNVSLEYDLDEGKRSHRDNYISELLCKLTGAEAACIVNNNAAAVLLMLATFAQGKEVIISRGELIEIGGAFRIPDIMEQAGCHLVEVGTTNRTHLKDYRNAITENTAFLMKVHSSNYQICGFTSSVSEEELTELGQEMNVPVVTDLGSGALVDLSQYGLPKEPTVQEKIAQGVDLVSFSGDKLLGGVQAGIIVGKKEWIEQLQAHPLKRVLRCDKVILAGLEATLRLYLNPEKLTEKLPTLRLLTQPLKQLKINAMRLKERLESRLNSQFELQIEASQAQIGSGSQPMERIPSVAVTIAEKTNAKLSALSARFKQLSQPIIGRMENGKIWLDLRSLADIETLLNTLDEL” the “soluble on expression in E. coli” value was “not soluble”.
In the case of “MGSDKIHHHHHHMTATVRQMWRHPIKGIGAEPLTEVRLETGGPMPLDRAWAVLTGTSEDTGAWQPCRNFARGCFGPELMAITAETQGNQITLRHPKQGEITLDPATDGARLLEWLLPLYPAERPQPHTLIKAPAGGMADADFSAVAILSLTSLKALGDALGQELDPRRFRGNLWIDGTAPFEEFDWVGRELKIGTARLEVVDRITRCRATETNPETGARDANTLKALREHWGHTDFGIRARVLSDGDIALSDSLEVL”, the “soluble on expression in E. coli” value is reported as “not soluble”.
For “MGSDKIHHHHHHMTDARDLTLPTGYIDLLGELKNRVRAARTRALRTVNTQLIELYWSIGQDVSAQQEHQGWGSGVIKRLADDLRAEFPEMKGFSARNVQYMTTFARAWNGGAIAQQPVAQLPWGHVTVLLDKLADQEKRDWYASEAVEYGWSRNVLMNMIMNKSLERTGSAPSNFAQHLVAQDSELAQQAAKDPYSFEFLGLSGEVAERDLEQALMDRITETLREMGPGFAFVGRQVHFDVGGDDFYIDLLFFHVEQLRYYVVELKTGKFQPEYAGKLNSYIALVDDRLRRETHADTVGILICGSKNDHTVRYSLGRATSPMAVASYTYDALPADVRDELPDADRLTAALDWTED”, the “soluble on expression in E. coli” value was “not soluble”.
With “MGSDKIHHHHHHMTDQTAARACGIDFGTSNSTVGWLRPGHDTLLQLEDGKITLPSVVFFNYEEDHSRFGRAALAEYIDGFEGRLMRSLKSLLGSSLIDSQTEVQGKALPFRHLLKLFIQELKLRAEGAAGREFEQVVLGRPVYFVDDNPQADKLAQDTLADIARQVGFKEISFQLEPIAAAFDYESNIQKEELVLIVDIGGGTSDFTLIRLSPERRSHAERRDDILATGGVHIGGTDFDRQLSLHGVMPLFGFKTRLRNNAEMPSSQYFNLATWHTINFAYTRKAWMDLQDVHRDAAEPEKLDRLFKLIQERAGHWLAMEVEAAKIALSDRDSHRLALDAIERGLHCDLSRADFETSISALLDRVGGTVGKLLADSGLKAQDVDTVFFTGGSSGVPALRDGIRALLPNARHVEGNLFGSIGSGLAIEAKKRYG” the “soluble on expression in E. coli” value was “not soluble”.
With “MGSDKIHHHHHHMTDVNASSESRLAALEARVTELEDLNAIRRLQWAYGYYIDYNRPEEVAGLFAKDGAVVFLSGEYVGYEGVMRLYGTWFQNLFTGGRRGPVHGLLLDHFQLQDVITIAPDGQTAKGRFRGILAGGWHDDIVKDKPEGMPQQFWESGIYENDYVKEDGVWKIKRLDYMMQWQADYETGWSKTIAHLQPAAVCFPENPIGPDRLLPETEVRQTWPHRAEVPMSFAHPVLAKAFAVGEFTKLQKKWP” the “soluble on expression in E. coli” value was “not soluble”.
In the case of “MGSDKIHHHHHHMTEDEAITQLRRFVAALESGSRRNANDAAFALLAGNPPLGDRWQSIAHVMQTNGEYSAAHLAMARFAAHRADPNARFAQAAMLAQTGQLEEAWKVMGSVPFGVPSVSGHHYIRGTIAVNLGHIEDAEKHLLAAIEAEPALGQAMLSLAAARKRKAGDPIGDRILSAEPRMEGAPPLERAHFHYAAGRVHFDRREPDEAFRHFSAGAELVRGWRSYDAAADARDAAECRQGFDRDFVDKINNLVTLDTSQPIFVTGLPRSGTTLVEQILVSHSAVSGGEELGRMGVVRRDLTSLSAKGLSDYLQAGGNADDLAALYLHLGQERFGKEGRFVDKALNTSRFTGLIAALLPHAPIVWLRRDPADCAFSAYRTYFINGLDWSWNLEDIATHFALEDQLFHHWSRMFPDRILAVDYQQLVQEPQAQIRRILAHCNLEEEPQVFRPHETQRVVSTASVMQVREPINTGAVGAAGAYRLHLAPFVDRYEALSAAT”, the “soluble on expression in E. coli” value is reported as “not soluble”.
With “MGSDKIHHHHHHMTEKADGKARIVRLGQILRIFMEKEKVSSTWLSRQFQTTPRTIQRDLLLLKKSGFPLHEIRKGIYQLHKDLVRNLEVFDDTELALVVALKNIVGQLGRPFQTAAGNILDHLYDCVKSMPVFVKIDDAVPLDSALLNRILQAILKKRTVSFQYAAPHGSHAVNLEPYRVVYFSGFWYLIGNEPSTGILKRYALDKIENFKSSRQCFTAIPSDLDDVLRQSANIWFTEDANIEITVHIDARVSDYFKRRKMYPTQEIKEERPDGSLVVTFRVGNYEAIRDILKSWIPHFVILEPEDFRVSMLNDIKGWVEKQEQQSCLDNISF” the “soluble on expression in E. coli” value was “not soluble”.
With “MGSDKIHHHHHHMTEQVTRRDVLGTGASVLGSLAIGSTTASGALQTDGTTVTFLHDTHVHGRFANASAGELSVARYFGLMNEITEDADTTLRVGNGDDLASSVLSAVFDGRHVVSTFNAGGLDFDTFGNHDFDMGPEVLRERVSDSLFTWVSANVREDGSVFAAEQGAQQYVLTDVGDVTLGVTGLITPEAPEVTSIGENTDVLAPASALQNVTERMRADGADAVIVLSHLASETARTVAEEVDGVDAIIGDHAASLLEEPEVINDTVLSFVGDEYEYLGELALGIDGSGVTDHEFVLHNVGESSAGTDPFVSLVQDHYETQLERQLDVVIGETTQPLDTRQSVVRARESNMGNFVADTIRTDVEADTALMNGGGIRTDRLYFEDASEDDPVAITRRVVVDILPFPNNVVELEVTGETLLAALENGVSRVEAGAGRFPQVSGITYTYDPTAESGDRIVDATAGGDPIDPDATYTLATNDFVSGGGDGYDMLSDATVLVSSNEGALLSDLIINTIEEQGTISPTTEGRITRQSEES” the “soluble on expression in E. coli” value was “not soluble”.
For “MGSDKIHHHHHHMTETTSSPQHYLGWDIGGANLKVALVRPDGIAVKVIQVPCPLWQGMDRLDAAIDLALAELGGPGGAKHSVTMTGELADIFPDRASGVWEIALRTHAMLGSELCFFAGASGFVPLAQVQQHANAIASANWLASAAFVATKLQQGLFIDIGSTTADFVLLHDGRPVNRGQTDAERMQHEELVYTGVARTSLMALASRIPFAGQWQNVAAEHFATTADVYRLTGELDPAEDMAATADGAGKSMDETCRRLARMVGRDADDADKTAWVHLAQAFRQQQLAILRDAVLCNLSRNVVRPGAPFIGAGAGVFLVRELAQQLGHEFLAASSLLKAESDQARNWAGVCLPAYAVANLGITANSQERAC”, the “soluble on expression in E. coli” value was “not soluble”.
For “MGSDKIHHHHHHMTFRALPSVDRLIRAVRSDGADMPHELVREAARAVLNEARTSISAGHPPPDLSTLVAAVQARLRADVTPSLRPLINATGVIIQTNLGRAPLSAAACAAMQEVGSGYSNLEYDLAQGERGSRHVHLESLLVQLTGAEAALVVNNNAAAVYLVLIAMAAGREVIVSRGQAVEIGGGFRIPDVLRASGALLIEVGTTNRTYARDYTAAITERTALILRVHTSNFRLIGFVHEPPLAELTAVAHTHGIPLLDDLGSGTLIDTRQFDLPPEPTVQESVAAGADLVTFSGDKLLGGPQAGIIVGRRELIARLRRHPLARALRVDKCTIAGLTATLHSYLRGTALREIPVWQLISTPLSALQARAERIAGALRAAGIPAQMVDCASAIGGGSLPGATQPSAGVALPPVGCGATVLAHRLRMANPPVITRIVDDQVLCDLRSVFPHEDTTLINVVREVWQ”, the “soluble on expression in E. coli” value was “not soluble”.
In the case of “MGSDKIHHHHHHMTGHYSKTEHQYILLTSESASFDHYSVYRDPQLPQIFSHNFVQLHDTFPLERLLNFLPSVPKLLDANYLHLKASPQHVFPLGLKQSLVKSGFVVEDELLYDMKLSDWKGQMGHPLTAWGTAKSLSDGSSIMKIYDSIYIGEAIAEQKLKRKYPFYEADIIILVVCYSDQAQKVPIGCGELFIDHQEKTAKIEEVAILDQFQRKGYGSILVKEMLSIAKSLGMEAAYLVAASTDGATQFYEKLTFKKYERVHTVFHYFLT”, the “soluble on expression in E. coli” value is reported as “not soluble”.
In the case of “MGSDKIHHHHHHMTGNQMFCRENELDESFKQLASYINIPVGVLLPFKSQCFVRHYNKGQIVYYSSDETTHIYLLLKGNIMRENFNLNGDVYRYLNREKVLFPLNNLFQDKVPNEMCTALTDCEMIGIPRDLIEYLCKNHEEIFVKLFSLLSETQCQHIEYNMALTSKLAKERVTKILRYLCQTVGYDHDEFYEIKHFMTIQLLSDMAGISRETTSHIINELREEKILFKNSKNWLVSKDL”, the “soluble on expression in E. coli” value is reported as “not soluble”.
In the case of “MGSDKIHHHHHHMTITAMLNPVWIQTFATVAAARSFTEAGRQLGLSQSSVSDHIRRLEQSVGRRLFVRDTHSLSMTPDGEALLVHARLILEALARAESQFTAPRLRGRVRLGTSEDLAQGPLSGVLSAFRNTHPDVEMEITIAMTSKLYELMDAGSLDLMLGKRRQGDRRGVPLFRGSLEWLARPGTVVDLSQPLPLILVHEPSVTRSVVLDTLAKAGCQWQVVCSSSSHSGCLAAARGGLGLTVRSRYLYGEGVAPPLNWEKLPALPEVEFISLSARRLSQPAETLLRLLQKSDLRAASSWTSA”, the “soluble on expression in E. coli” value is reported as “not soluble”.
For “MGSDKIHHHHHHMTIWVRNGNNAATEQEISAKETELGLFLPAEYKELLLKQNGGLIRKNHFPTNEPTSYGLDVAEIYYLASLNELLTDIPEQNDVDLAGKQVYFHRDESRYIGFSYADNKSLPSIIYVDFETLQTLVVAENMAEFLEALYFSPFPVDFAEQFPVKKLDQILASSNVKKTKQLLELLEDYPDKKWYLETLIRLLQKNEIPYNIVVYQSFENQLLYFRRKLVPELVEKIFAMLKDCDGIDQSATTELYKEWE”, the “soluble on expression in E. coli” value was “not soluble”.
For “MGSDKIHHHHHHMTKARKVLVSALCFTALIGEAAVGREQVVLKPSGQWNINYADESCQLARTFGVGDQKTLVQFERFGPENGFALMIVSPLLKFQENFRAVPNRMLHPTKRQYLDTVFQFLPGGEPYKQPGIPAMDAASRQPTLMAFLSLEGPRKDAAPTATGTASASEDRKLTNEERLALEKATNALLVEQPFNDPIRFELGSLAQPFATLAACTDDLVRSWGLQTDPEHAAVNPPKPIGSPSEWFDDKKLAERVWSKRENAIIYFRMIVSDKGAPESCVIQDSSQTTELRDLSCRALMGKARFTPGTNAAGQSVRSVYRGAVRYFTSRN”, the “soluble on expression in E. coli” value was “not soluble”.
For “MGSDKIHHHHHHMTKLAIMSDLHIDLNHFSTFETKTLINLLKKEKIDHLHIAGDISNHFTKDTLPFINNLKKHIKLSYNLGNHDMLDLTETEIQRLDFQTYRFDKKMLLAFHGWYDYSFSNNRDIKDVEKLKKTFWFDRRLKRPNNDVTIQASILKRLDEILAKVDSSNIIIAMHFVPHKQFTMTHPRFSPFNAFLGSQAYHDLFQKYHIKDVVFGHAHRSFGDVKIGETTYHSRPLGYIREWNLTIDFVNQNPNHNPNLTWNLSKRYNAVKHLDSFENYRKKYFEDELRNSMTIFDC”, the “soluble on expression in E. coli” value was “not soluble”.
